Data on three molecules can be found in patent US20250257149A1 (GLYCOTOPE, published 2025).

Experiment [1] has as its target T1, TA-MUC1 (tumor-associated MUC1) on human tumor cell lines (human, UniProt P15941 24-1255, aberrant tumor-associated O-glycosylation).
T1 construct: whole, on cells; also called cellular TA-MUC1; cell surface TA-MUC1
The experiment is described as follows: saturation binding of 111In-labelled antibody on MCF-7 cells. As for the experimental part:
(§1) Binding of the Fab-deglycosylated version of the MUC1-specific antibody PankoMab (PM-N54Q) on TA-MUC-1 positive human tumor cell lines was evaluated using radiolabeled antibodies by saturated binding analysis on the human mamma carcinoma cell lines ZR-75-1 and MCF-7 in comparison to Fab-glycosylated PankoMab-GEX®. The antibodies were chelated with a 12-fold molar excess of p-SCN-Benzyl-DTPA in 50 mM sodium carbonate, 150 mM NaCl, pH 8.7, for 2 h at 37° C., followed by over-night incubation at 2-8° C. Free chelator was removed over desalting columns and dead-end filtration (50 kDa cut-off, 6× buffer exchange to PBS). The chelated antibodies were radiolabeled with carrier-free ¹¹¹In (2 μCi/μg antibody) for 1 h at 37° C. in 6 mM phosphate, 1.6 mM KCl, 80 mM NaCl, 0.2 M Na-acetate, 0.1 M HCl. The preparations were neutralized by addition of 8-9 fold volume of 10× concentrated PBS. About 1/50 volume of fetal bovine serum were added to the neutralized labelled antibody preparation. Per cell binding approach 1*10⁶ cells were used. Several concentrations of labelled antibodies were added to the pelleted cells (30-1000 ng/200 μL in 1% BSA/PBS). The resuspended cell-antibody mixtures were measured in a gamma-counter and incubated 1 h at 4° C. […] The cell pellet was then measured for bound ¹¹¹In-labelled antibody in a gamma counter. […]

In experiment [2] the target is T1, TA-MUC1 (tumor-associated MUC1) on …. The experiment is described as follows: saturation binding of 111In-labelled antibody on ZR-75-1 cells. As for the experimental part:
as §1

Experiment [3] has the same target. The experiment can be described thus: flow cytometry on HSC-4 cells, detection with PE-conjugated goat anti-human IgG. As to the method: (§2) N54Q and N54D were transiently expressed and purified by protein A chromatography. Binding of the two variants to cell surface TA-MUC1 was compared to PM with Fab glycosylation using two different carcinoma cell lines. The tongue squamous cell carcinoma line HSC-4 expresses TA-MUC1 to a medium degree and the ovarian carcinoma cell line CaOV-3 to a high degree. Tumor cells were incubated with antibodies in serial dilutions and bound antibodies were detected using a Phycoerythrin-conjugated goat anti-human IgG (heavy and light chain) antibody. A human IgG control was included to control for background staining. Binding was analyzed by flow cytometry.
Background: Flow cytometry measures light scatter and fluorescence of single cells or particles in a stream.

Experiment [4] has the same target. The experiment can be described thus: flow cytometry on CaOV-3 cells, detection with PE-conjugated goat anti-human IgG. As for the experimental part: as §2
The target is the same in experiment [5]. The experiment can be described thus: saturation binding of 111In-labelled antibody on ZR-75-1 and MCF-7 cells. As to the method: as §1

T1 sequence (P15941 24-1255): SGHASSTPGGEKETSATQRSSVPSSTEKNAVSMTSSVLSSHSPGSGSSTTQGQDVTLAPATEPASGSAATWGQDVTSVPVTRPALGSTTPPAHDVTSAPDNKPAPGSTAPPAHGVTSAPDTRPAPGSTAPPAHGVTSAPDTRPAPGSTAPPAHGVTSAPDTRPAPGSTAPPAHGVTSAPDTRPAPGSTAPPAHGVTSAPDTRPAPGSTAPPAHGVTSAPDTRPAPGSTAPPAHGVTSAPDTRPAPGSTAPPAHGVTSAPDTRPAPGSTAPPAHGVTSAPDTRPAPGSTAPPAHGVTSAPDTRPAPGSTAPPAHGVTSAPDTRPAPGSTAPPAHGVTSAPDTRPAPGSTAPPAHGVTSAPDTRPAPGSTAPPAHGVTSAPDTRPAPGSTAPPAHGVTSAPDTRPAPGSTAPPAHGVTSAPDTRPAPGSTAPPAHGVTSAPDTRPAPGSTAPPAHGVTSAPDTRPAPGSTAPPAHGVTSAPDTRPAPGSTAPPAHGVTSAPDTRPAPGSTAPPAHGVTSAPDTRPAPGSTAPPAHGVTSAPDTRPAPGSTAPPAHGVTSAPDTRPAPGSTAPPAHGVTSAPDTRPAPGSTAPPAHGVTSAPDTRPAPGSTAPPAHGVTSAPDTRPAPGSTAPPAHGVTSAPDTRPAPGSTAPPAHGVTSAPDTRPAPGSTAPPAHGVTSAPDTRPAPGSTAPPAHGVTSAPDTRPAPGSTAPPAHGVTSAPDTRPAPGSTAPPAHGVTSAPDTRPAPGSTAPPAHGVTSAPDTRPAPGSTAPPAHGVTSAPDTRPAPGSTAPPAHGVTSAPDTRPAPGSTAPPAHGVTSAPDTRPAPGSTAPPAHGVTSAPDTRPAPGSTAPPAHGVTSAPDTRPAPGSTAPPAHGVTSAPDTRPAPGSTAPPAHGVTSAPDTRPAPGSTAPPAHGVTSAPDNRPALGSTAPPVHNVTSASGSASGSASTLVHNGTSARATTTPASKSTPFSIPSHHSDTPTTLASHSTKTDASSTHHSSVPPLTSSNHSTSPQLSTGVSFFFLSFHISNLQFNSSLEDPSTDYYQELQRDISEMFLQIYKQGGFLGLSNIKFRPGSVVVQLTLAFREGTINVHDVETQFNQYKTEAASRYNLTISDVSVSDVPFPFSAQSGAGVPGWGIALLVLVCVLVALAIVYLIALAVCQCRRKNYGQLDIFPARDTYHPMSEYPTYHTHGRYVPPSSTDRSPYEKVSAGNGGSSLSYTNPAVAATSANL

B1: humanized antibody PankoMab (with Fab glycosylation) (antibody, human IgG1, kappa)
heavy: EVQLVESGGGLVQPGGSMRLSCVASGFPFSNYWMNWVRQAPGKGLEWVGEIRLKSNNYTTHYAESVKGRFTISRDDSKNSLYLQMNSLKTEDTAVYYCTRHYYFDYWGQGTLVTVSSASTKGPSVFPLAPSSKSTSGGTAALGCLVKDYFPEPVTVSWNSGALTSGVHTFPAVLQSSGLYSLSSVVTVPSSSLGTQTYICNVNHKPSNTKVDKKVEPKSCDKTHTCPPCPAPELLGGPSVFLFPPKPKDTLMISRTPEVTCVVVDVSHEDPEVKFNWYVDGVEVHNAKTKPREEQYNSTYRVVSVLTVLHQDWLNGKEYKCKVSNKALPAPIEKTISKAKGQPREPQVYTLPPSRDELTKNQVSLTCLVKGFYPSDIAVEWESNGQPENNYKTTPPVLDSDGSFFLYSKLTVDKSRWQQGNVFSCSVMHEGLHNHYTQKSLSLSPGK
light: DIVMTQSPLSNPVTPGEPASISCRSSKSLLHSNGITYFFWYLQKPGQSPQLLIYQMSNLASGVPDRFSGSGSGTDFTLRISRVEAEDVGVYYCAQNLELPPTFGQGTKVEIKRTVAAPSVFIFPPSDEQLKSGTASVVCLLNNFYPREAKVQWKVDNALQSGNSQESVTEQDSKDSTYSLSSTLTLSKADYEKHKVYACEVTHQGLSSPVTKSFNRGEC
modifications: N-glycan on Asn54 (Kabat/EU numbering; amino acid position 57) in CDR-H2
notes: IgG1 kappa made in NM-H9D8 cells (for the FcγRIIIa assay also in NM-H9D8-E6Q12, low fucose); also called PM; PankoMab-GEX®
Usually EC50 (read off the curve) stands for the midpoint of the concentration-response curve. Higher therefore signals a less potent agent. On to B1, for which the Ka in experiment [1] was 3e+07 M⁻¹; in experiment [2], 1.2e+07 M⁻¹. For the same molecule, the “EC50 (read off the curve)” value in experiment [3] is about 300 ng/mL; in experiment [4], about 3 ng/mL.

B2: humanized antibody PankoMab N54Q (without Fab glycosylation) (antibody, human IgG1, kappa)
heavy: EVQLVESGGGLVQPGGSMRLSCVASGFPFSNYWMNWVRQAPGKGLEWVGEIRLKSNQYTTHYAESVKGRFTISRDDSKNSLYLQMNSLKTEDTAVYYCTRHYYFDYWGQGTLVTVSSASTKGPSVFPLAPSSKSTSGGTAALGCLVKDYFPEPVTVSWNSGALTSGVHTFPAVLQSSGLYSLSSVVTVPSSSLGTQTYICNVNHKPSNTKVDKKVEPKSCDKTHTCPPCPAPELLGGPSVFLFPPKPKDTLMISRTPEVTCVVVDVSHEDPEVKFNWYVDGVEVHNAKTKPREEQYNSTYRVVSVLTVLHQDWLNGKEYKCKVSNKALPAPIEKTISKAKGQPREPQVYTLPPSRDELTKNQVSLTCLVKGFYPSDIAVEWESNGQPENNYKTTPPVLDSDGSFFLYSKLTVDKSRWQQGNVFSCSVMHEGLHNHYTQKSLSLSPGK
light: DIVMTQSPLSNPVTPGEPASISCRSSKSLLHSNGITYFFWYLQKPGQSPQLLIYQMSNLASGVPDRFSGSGSGTDFTLRISRVEAEDVGVYYCAQNLELPPTFGQGTKVEIKRTVAAPSVFIFPPSDEQLKSGTASVVCLLNNFYPREAKVQWKVDNALQSGNSQESVTEQDSKDSTYSLSSTLTLSKADYEKHKVYACEVTHQGLSSPVTKSFNRGEC
notes: IgG1 kappa; Made in NM-H9D8 cells (for the FcγRIIIa assay also in NM-H9D8-E6Q12, low fucose); also called PM-N54Q; PM N54Q w/o Fab glyc
With B2, the Ka in experiment [1] amounted to 7.8e+07 M⁻¹; in experiment [2], 3.4e+07 M⁻¹. Moreover, in experiment [5], the “fold higher binding than PankoMab-GEX®” value was over 2.5 fold. For the same molecule, the concentration for a half-maximal effect (EC50 (read off the curve)) was about 100 ng/mL in experiment [3] and about 2 ng/mL in experiment [4].

B3: PankoMab N54D (antibody, V domains shown)
VH: EVQLVESGGGLVQPGGSMRLSCVASGFPFSNYWMNWVRQAPGKGLEWVGEIRLKSNDYTTHYAESVKGRFTISRDDSKNSLYLQMNSLKTEDTAVYYCTRHYYFDYWGQGTLVTVSS
VL: DIVMTQSPLSNPVTPGEPASISCRSSKSLLHSNGITYFFWYLQKPGQSPQLLIYQMSNLASGVPDRFSGSGSGTDFTLRISRVEAEDVGVYYCAQNLELPPTFGQGTKVEIKR
notes: Light chain unchanged; also called PM-N54D
B3: in experiment [4], the 50% effective concentration (EC50 (read off the curve)) is about 4 ng/mL.
